Where a chain is given by its changes, count along the chain named.
Tests used:
[1] = target: T1, human TIGIT ECD (wild-type, expressed in E. coli) (human, UniProt Q495A1 22-141); assay: SPR, antibody captured on anti-human Fc, TIGIT ECD injected
T1 construct: also called huTIGIT; wild-type TIGIT
T1 sequence: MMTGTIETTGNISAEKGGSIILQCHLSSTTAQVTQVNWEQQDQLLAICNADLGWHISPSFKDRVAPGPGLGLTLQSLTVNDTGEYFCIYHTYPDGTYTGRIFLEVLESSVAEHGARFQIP

human TIGIT ECD Y113A = target: T2, human TIGIT ECD Y113A (human, UniProt Q495A1 22-141); assay: as above
T2 construct: point mutant expressed in E. coli
T2 chain: T1 sequence with Y92A

human TIGIT ECD T117A = target: T3, human TIGIT ECD T117A (human, UniProt Q495A1 22-141); assay: as above
T3 construct: point mutant expressed in E. coli
T3 chain: T1 sequence with T96A

human TIGIT ECD T51A = target: T4, human TIGIT ECD T51A (human, UniProt Q495A1 22-141); assay: as above
T4 construct: point mutant expressed in E. coli
T4 chain: T1 sequence with T30A

human TIGIT ECD Q56A = target: T5, human TIGIT ECD Q56A (human, UniProt Q495A1 22-141); assay: as above
T5 construct: point mutant expressed in E. coli
T5 chain: T1 sequence with Q35A

human TIGIT ECD T55A = target: T6, human TIGIT ECD T55A (human, UniProt Q495A1 22-141); assay: as above
T6 construct: point mutant expressed in E. coli
T6 chain: T1 sequence with T34A

human TIGIT ECD A71G = target: T7, human TIGIT ECD A71G (human, UniProt Q495A1 22-141); assay: as above
T7 construct: point mutant expressed in E. coli
T7 chain: T1 sequence with A50G

human TIGIT ECD H111A = target: T8, human TIGIT ECD H111A (human, UniProt Q495A1 22-141); assay: as above
T8 construct: point mutant expressed in E. coli
T8 chain: T1 sequence with H90A

human TIGIT ECD N70A = target: T9, human TIGIT ECD N70A (human, UniProt Q495A1 22-141); assay: as above
T9 construct: point mutant expressed in E. coli
T9 chain: T1 sequence with N49A

human TIGIT ECD Q53A = target: T10, human TIGIT ECD Q53A (human, UniProt Q495A1 22-141); assay: as above
T10 construct: point mutant expressed in E. coli
T10 chain: T1 sequence with Q32A

human TIGIT ECD P114G = target: T11, human TIGIT ECD P114G (human, UniProt Q495A1 22-141); assay: as above
T11 construct: point mutant expressed in E. coli
T11 chain: T1 sequence with P93G

human TIGIT ECD D115A = target: T12, human TIGIT ECD D115A (human, UniProt Q495A1 22-141); assay: as above
T12 construct: point mutant expressed in E. coli
T12 chain: T1 sequence with D94A

[2] = target: T13, human TIGIT on cells (primary T cells, transfected HEK293 cells, Jurkat reporter cells, NK cells) (human, UniProt Q495A1 22-244); assay: cell-based or functional assay
T13 sequence: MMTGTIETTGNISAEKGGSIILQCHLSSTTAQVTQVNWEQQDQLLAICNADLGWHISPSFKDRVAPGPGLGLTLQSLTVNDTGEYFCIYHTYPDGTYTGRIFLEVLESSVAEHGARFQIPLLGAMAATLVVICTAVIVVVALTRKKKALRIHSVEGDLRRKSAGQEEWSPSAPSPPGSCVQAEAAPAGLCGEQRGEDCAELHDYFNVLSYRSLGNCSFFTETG

B1: 3963H03-12 (antibody, human IgG1, kappa, V domains shown)
VH: QVQLVQSGSELKKPGASVKVSCKASGYTFTSYPMNWVRQAPGQGLEWMGWINTNTGNPTYAQGFTGRFVFSLDTSVSTAYLQISSLKAEDTAVYYCARVGGYSVDEYAFDVWGQGTLVTVSS
VL: DIQLTQSPSFLSASVGDRVTITCRASQGISSYLAWYQQKPGKAPKLLIYAASTLQSGVPSRFSGSGSGTEFTLTISSLQPEDFATYYCQQLSSYPTFGGGTKVEIKR
notes: also called anti-TIGIT H03-12; 39631H03-12
Kd [1]: 2.08 nM | ΔΔGmut [1]: 0 kcal/mol | ΔΔGmut (human TIGIT ECD Y113A): > 3 kcal/mol | Kd (human TIGIT ECD T117A): 1.58 nM | ΔΔGmut (human TIGIT ECD T117A): -0.17 kcal/mol | Kd (human TIGIT ECD T51A): 1.77 nM | ΔΔGmut (human TIGIT ECD T51A): -0.1 kcal/mol | Kd (human TIGIT ECD Q56A): 33.9 nM | ΔΔGmut (human TIGIT ECD Q56A): 1.65 kcal/mol | ΔΔGmut (human TIGIT ECD T55A): > 3 kcal/mol | Kd (human TIGIT ECD A71G): 7.02 nM | ΔΔGmut (human TIGIT ECD A71G): 0.72 kcal/mol | Kd (human TIGIT ECD H111A): 30.9 nM | ΔΔGmut (human TIGIT ECD H111A): 1.6 kcal/mol | Kd (human TIGIT ECD N70A): 31.5 nM | ΔΔGmut (human TIGIT ECD N70A): 1.61 kcal/mol | ΔΔGmut (human TIGIT ECD Q53A): > 3 kcal/mol | ΔΔGmut (human TIGIT ECD P114G): > 3 kcal/mol | Kd (human TIGIT ECD D115A): 14.4 nM | ΔΔGmut (human TIGIT ECD D115A): 1.14 kcal/mol | EC50 [2]: 12.5 µg/mL
